US20140018297A1 (Novo Nordisk, published 2014)

What was measured:
[1] = target: T1, FVIII (as used in the competition ELISA of Example 21; form not stated) (UniProt P00451 20-2351, limits assumed); experiment: competition ELISA; competitor coated human VWF; FVIII 1 nM pre-incubated with the fragment
T1 sequence (looked up): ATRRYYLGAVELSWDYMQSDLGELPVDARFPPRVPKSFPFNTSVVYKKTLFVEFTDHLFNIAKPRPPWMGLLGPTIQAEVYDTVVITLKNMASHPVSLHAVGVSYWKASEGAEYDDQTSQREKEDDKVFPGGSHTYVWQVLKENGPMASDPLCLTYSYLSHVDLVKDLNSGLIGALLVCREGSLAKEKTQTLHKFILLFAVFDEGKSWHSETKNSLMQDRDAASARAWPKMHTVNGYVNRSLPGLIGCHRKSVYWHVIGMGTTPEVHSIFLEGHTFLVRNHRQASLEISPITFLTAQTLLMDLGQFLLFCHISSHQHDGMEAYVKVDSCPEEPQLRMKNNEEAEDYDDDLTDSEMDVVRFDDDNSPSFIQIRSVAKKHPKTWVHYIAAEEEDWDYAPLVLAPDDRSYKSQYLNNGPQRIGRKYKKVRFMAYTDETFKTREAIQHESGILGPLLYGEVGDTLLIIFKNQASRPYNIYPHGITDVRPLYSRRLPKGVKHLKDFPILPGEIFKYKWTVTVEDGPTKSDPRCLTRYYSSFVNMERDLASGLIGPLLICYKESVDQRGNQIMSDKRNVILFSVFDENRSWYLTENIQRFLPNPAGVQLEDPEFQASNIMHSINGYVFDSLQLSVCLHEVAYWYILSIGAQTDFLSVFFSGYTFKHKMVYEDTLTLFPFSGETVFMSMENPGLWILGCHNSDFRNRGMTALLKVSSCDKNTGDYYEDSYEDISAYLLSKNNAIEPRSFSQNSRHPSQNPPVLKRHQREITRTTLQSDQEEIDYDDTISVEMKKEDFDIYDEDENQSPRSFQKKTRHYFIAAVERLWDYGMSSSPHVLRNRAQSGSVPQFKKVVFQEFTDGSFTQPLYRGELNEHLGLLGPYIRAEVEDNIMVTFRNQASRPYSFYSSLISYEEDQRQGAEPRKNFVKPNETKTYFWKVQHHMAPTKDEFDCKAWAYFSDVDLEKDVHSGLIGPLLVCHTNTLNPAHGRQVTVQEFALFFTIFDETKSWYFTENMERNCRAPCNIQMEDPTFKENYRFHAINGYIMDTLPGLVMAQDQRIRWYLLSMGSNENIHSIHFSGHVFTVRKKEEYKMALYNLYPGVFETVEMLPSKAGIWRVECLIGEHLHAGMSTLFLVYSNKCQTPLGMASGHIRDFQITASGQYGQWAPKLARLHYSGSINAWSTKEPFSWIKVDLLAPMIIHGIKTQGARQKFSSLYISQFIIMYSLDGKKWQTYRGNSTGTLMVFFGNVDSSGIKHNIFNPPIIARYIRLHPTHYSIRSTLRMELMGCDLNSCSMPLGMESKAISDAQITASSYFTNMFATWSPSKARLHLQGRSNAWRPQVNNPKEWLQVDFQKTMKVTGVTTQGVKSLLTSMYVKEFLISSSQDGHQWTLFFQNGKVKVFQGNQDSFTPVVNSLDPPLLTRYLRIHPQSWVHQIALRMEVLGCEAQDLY
Description: In order to investigate the binding of the different VWF fragments to FVIII the following method is used. Briefly, human VWF is coated in a microtiterplate and incubated overnight at 4° C. After blocking, a solution with pre-incubated FVIII (1 nM) and VWF/VWF-fragment is added to the plate, followed by detection with biotinylated anti FVIII antibody and streptavidin-peroxidase S-POD (1:20000). The absorbance is measured at 450/620 nm.

[2] = target: T2, Fluorescent labelled FVIII (Oregon green-FVIII) (UniProt P00451 20-2351, limits assumed, Oregon green label); experiment: cell-based or functional assay
T2 sequence (looked up): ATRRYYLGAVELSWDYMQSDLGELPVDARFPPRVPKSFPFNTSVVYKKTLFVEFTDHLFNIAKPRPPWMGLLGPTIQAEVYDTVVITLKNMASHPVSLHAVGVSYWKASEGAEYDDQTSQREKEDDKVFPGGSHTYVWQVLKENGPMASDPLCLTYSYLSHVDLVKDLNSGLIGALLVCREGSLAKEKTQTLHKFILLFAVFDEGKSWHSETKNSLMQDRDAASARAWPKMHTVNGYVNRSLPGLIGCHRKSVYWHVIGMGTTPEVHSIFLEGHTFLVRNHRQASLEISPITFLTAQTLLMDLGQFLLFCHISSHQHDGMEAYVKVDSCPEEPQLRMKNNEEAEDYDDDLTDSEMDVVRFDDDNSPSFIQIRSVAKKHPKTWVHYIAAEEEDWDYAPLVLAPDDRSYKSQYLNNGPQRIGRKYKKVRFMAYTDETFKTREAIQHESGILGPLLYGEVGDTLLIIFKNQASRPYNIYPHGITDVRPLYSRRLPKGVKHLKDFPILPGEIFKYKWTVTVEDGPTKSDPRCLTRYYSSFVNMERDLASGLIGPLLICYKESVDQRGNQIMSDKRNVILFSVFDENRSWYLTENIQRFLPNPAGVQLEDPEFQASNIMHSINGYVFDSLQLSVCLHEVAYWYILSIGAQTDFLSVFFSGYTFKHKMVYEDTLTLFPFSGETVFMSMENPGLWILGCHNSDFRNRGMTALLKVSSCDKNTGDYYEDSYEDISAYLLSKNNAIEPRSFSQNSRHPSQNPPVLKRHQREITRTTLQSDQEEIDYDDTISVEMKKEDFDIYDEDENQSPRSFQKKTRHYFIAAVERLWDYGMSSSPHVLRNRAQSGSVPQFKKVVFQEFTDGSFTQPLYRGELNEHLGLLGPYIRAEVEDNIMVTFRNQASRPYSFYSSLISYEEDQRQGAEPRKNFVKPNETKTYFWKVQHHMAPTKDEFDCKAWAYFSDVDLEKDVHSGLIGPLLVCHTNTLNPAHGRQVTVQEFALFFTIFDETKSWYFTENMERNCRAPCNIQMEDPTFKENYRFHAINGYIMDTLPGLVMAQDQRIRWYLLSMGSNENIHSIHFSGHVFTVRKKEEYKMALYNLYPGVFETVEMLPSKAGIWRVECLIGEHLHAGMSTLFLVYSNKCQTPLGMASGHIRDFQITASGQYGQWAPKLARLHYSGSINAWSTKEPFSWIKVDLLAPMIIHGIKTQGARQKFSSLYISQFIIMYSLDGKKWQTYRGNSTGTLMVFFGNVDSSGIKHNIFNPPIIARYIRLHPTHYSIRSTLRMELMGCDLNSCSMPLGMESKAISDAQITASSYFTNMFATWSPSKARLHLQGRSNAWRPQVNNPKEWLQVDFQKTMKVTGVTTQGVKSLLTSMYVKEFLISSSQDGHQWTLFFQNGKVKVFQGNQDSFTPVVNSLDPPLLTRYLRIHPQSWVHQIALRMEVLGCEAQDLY

B1: VWF(864-1250)-C1099/1142S-ALA-HPC4 monomer (other)
chain: DATCSTIGMAHYLTFDGLKYLFPGECQYVLVQDYCGSNPGTFRILVGNKGCSHPSVKCKKRVTILVEGGEIELFDGEVNVKRPMKDETHFEVVESGRYIILLLGKALSVVWDRHLSISVVLKQTYQEKVCGLCGNFDGIQNNDLTSSNLQVEEDPVDFGNSWKVSSQCADTRKVPLDSSPATCHNNIMKQTMVDSSCRILTSDVFQDCNKLVDPEPYLDVCIYDTCSCESIGDCASFCDTIAAYAHVCAQHGKVVTWRTATLCPQSCEERNLRENGYESEWRYNSCAPACQVTCQHPEPLACPVQCVEGCHAHCPPGKILDELLQTCVDPEDCPVCEVAGRRFASGKKVTLNPSDPEHCQICHCDVVNLTCEACQEPGGLVVPPTDAALAEDQVDPRLIDGK
notes: also called 0001; D3 I
[1]
  IC50: 20000 nM

B2: VWF(764-1198)-C1099/1142S-ALA-HPC4 monomer (other)
chain: SLSCRPPMVKLVCPADNLRAEGLECTKTCQNYDLECMSMGCVSGCLCPPGMVRHENRCVALERCPCFHQGKEYAPGETVKIGCNTCVCQDRKWNCTDHVCDATCSTIGMAHYLTFDGLKYLFPGECQYVLVQDYCGSNPGTFRILVGNKGCSHPSVKCKKRVTILVEGGEIELFDGEVNVKRPMKDETHFEVVESGRYIILLLGKALSVVWDRHLSISVVLKQTYQEKVCGLCGNFDGIQNNDLTSSNLQVEEDPVDFGNSWKVSSQCADTRKVPLDSSPATCHNNIMKQTMVDSSCRILTSDVFQDCNKLVDPEPYLDVCIYDTCSCESIGDCASFCDTIAAYAHVCAQHGKVVTWRTATLCPQSCEERNLRENGYESEWRYNSCAPACQVTCQHPEPLACPVQCVEGCHAHCPPGKILDELLQTCVDPEDCPVALAEDQVDPRLIDGK
notes: also called 0003; TIL′/E′/VWD3/C8-3/TIL-3
[1]
  IC50: 28 nM

B3: VWF(764-1250)-C1099/1142S-ALA-HPC4 monomer (other)
chain: SLSCRPPMVKLVCPADNLRAEGLECTKTCQNYDLECMSMGCVSGCLCPPGMVRHENRCVALERCPCFHQGKEYAPGETVKIGCNTCVCQDRKWNCTDHVCDATCSTIGMAHYLTFDGLKYLFPGECQYVLVQDYCGSNPGTFRILVGNKGCSHPSVKCKKRVTILVEGGEIELFDGEVNVKRPMKDETHFEVVESGRYIILLLGKALSVVWDRHLSISVVLKQTYQEKVCGLCGNFDGIQNNDLTSSNLQVEEDPVDFGNSWKVSSQCADTRKVPLDSSPATCHNNIMKQTMVDSSCRILTSDVFQDCNKLVDPEPYLDVCIYDTCSCESIGDCASFCDTIAAYAHVCAQHGKVVTWRTATLCPQSCEERNLRENGYESEWRYNSCAPACQVTCQHPEPLACPVQCVEGCHAHCPPGKILDELLQTCVDPEDCPVCEVAGRRFASGKKVTLNPSDPEHCQICHCDVVNLTCEACQEPGGLVVPPTDAALAEDQVDPRLIDGK
notes: also called TIL′/E′/D3 I
[2]
  IC50 (nM), FVIII uptake in dendritic cells: 31 nM
[1]
  IC50: 12 nM
